Like-named read-outs stand apart in the source and are kept apart here.
How the values were obtained:
Recombinant human HER2 [1] = molecular target: T1, Recombinant human HER2 (human, UniProt P04626 23-652); test: SPR at 25 C of the OA variant, equilibrium association constant
T1 construct: extracellular domain; Analyte of the SPR assays; also called HER2 ECD; ECD2 of HER2
Procedure: (§1) The affinity towards HER2 ECD of the samples was measured by SPR on a Biacore T200 as follows. Between 2000 and 4000 RU of anti-human Fc injected at concentration between 5 and 10 μg/ml was immobilized on a CM5 chip using standard amine coupling. Antigen-binding constructs were captured on the anti-human Fc (injected at concentration at 0.51 microg/mL in PBST, 1 min at 10 microl/min) at response levels ranging from 120-270 RU. […] HER2 dilutions were analyzed in duplicates. Sensograms were fit globally to a 1: 1 Langmuir binding model, using the software provided with the Biacore T200. All experiments were conducted at 25° C.

Recombinant human HER2 [2] = molecular target: T1, Recombinant human HER2; test: SPR at 25 C of the OA variant, logarithm of the association constant
Procedure: as §1

Recombinant human HER2 [3] = molecular target: T1, Recombinant human HER2; test: as above; remark: listed apart in the source
Procedure: as §1

Recombinant human HER2 [4] = molecular target: T1, Recombinant human HER2; test: SPR at 25 C of the OA variant, equilibrium association constant; remark: listed apart in the source
Procedure: as §1

Recombinant human HER2 [5] = molecular target: T1, Recombinant human HER2; test: calculated from the SPR Ka ratio to WT v10013;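 further: SPR at 25 °C with constructs captured on an anti-human Fc chip and HER2 extracellular domain as analyte, kinetics fitted to a 1:1 Langmuir model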
Recombinant human HER2 [6] = molecular target: T1, Recombinant human HER2; test: SPR, Biacore T200, 25 C; variant captured on anti-human Fc, HER2 flowed;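 further: HER2 extracellular domain analyte run as duplicate dilutions over amine-coupled anti-Fc on a CM5 chip, rates from global sensorgram fitting with a 1:1 Langmuir model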
Recombinant human HER2 [7] = molecular target: T1, Recombinant human HER2; test: SPR, 25 C; Ka ratio to WT v10013;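 further: constructs captured via anti-human Fc on CM5 chip, HER2 ECD as analyte in duplicate dilutions, sensorgrams globally fit to 1:1 Langmuir model on Biacore T200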
Procedure: as §1

[8] = molecular target: T2, HER2 expressed on the surface of cells (human, UniProt P04626 23-1255); test: cell-based or functional assay
[9] = molecular target: T2, HER2 expressed on the surface of cells; test: cell-based or functional assay; remark: listed apart in the source
[10] = molecular target: T2, HER2 expressed on the surface of cells; test: flow cytometry on SKBR3 cells, n=1; B50 = concentration at 50% of Bmax
Procedure: (§2) Binding of the test antigen-binding constructs to the surface of HER2+ cells was determined by flow cytometry. Cells were washed with PBS and resuspended in DMEM at 1×10⁵ cells/100 μl. 100 μl cell suspension was added into each microcentrifuge tube, followed by 10 μl/tube of the antigen-binding constructs. The tubes were incubated for 2 hr at 4° C. on a rotator. The microcentrifuge tubes were centrifuged for 2 min 2000 RPM at room temperature and the cell pellets washed with 500 μl media. Each cell pellet was resuspended in 100 μl of fluorochrome-labelled secondary antibody diluted in media to 2 μg/sample. The samples were then incubated for lhr at 4° C. on a rotator. After incubation, the cells were centrifuged for 2 min at 2000 rpm and washed in media. The cells were resuspended in 500 μl media, filtered, transferred to a tube containing 5 μl propidium iodide (PI) and analyzed on a BD LSR II flow cytometer according to the manufacturer's instructions. The B50 of the tested antigen-binding constructs was assessed by FACS with data analysis and curve fitting performed in GraphPad Prism. The experiment was carried out once (n=1) in SKBr3 cells, and twice (n=2) in SKOV3, MCF7, and BT-474 cells.
(§3) The experiment was performed once (n=1) in each cell line.

[11] = molecular target: T2, HER2 expressed on the surface of cells; test: cell-based or functional assay; remark: listed apart in the source
[12] = molecular target: T2, HER2 expressed on the surface of cells; test: flow cytometry on MCF7 cells (low HER2), n=1; B50 = concentration at 50% of Bmax
Procedure: as §2, §3

[13] = molecular target: T2, HER2 expressed on the surface of cells; test: flow cytometry on BT474 cells, n=1; B50 = concentration at 50% of Bmax
Procedure: as §2, §3

[14] = molecular target: T2, HER2 expressed on the surface of cells; test: flow cytometry on SKBR3 cells, n=1
Procedure: as §2, §3

[15] = molecular target: T2, HER2 expressed on the surface of cells; test: cell-based or functional assay; remark: listed apart in the source
[16] = molecular target: T2, HER2 expressed on the surface of cells; test: flow cytometry on BT474 cells, n=1
Procedure: as §2, §3

[17] = molecular target: T2, HER2 expressed on the surface of cells; test: cell-based or functional assay; remark: listed apart in the source
[18] = molecular target: T2, HER2 expressed on the surface of cells; test: flow cytometry on MCF7 cells (low HER2), n=1
Procedure: as §2, §3

Binder	growth inhibition IC50 (potency), BT474 cells [8] [nM]	growth inhibition span (percentage of cells killed), BT474 cells [8] [%]	growth inhibition span ratio to WT, BT474 cells [8] [fold]	growth inhibition span (percentage of cells killed), MDA-MB-175 cells [9] [%]	B50 [10] [nM]	growth inhibition IC50 (potency), NCI-N87 cells, 5 days [11] [nM]	growth inhibition span (percentage of cells killed), NCI-N87 cells [11] [%]	increase in efficacy with respect to the WT, NCI-N87 cells [11] [fold]	increase in potency with respect to the WT, NCI-N87 cells [11] [fold]	B50 [12] [nM]	B50 [13] [nM]	Bmax [14] [MFI]	growth inhibition IC50 (potency), BT474 cells + EGF [15] [nM]	growth inhibition span (percentage of cells killed), BT474 cells + EGF [15] [%]	growth inhibition span ratio to WT, BT474 cells + EGF [15] [fold]	Bmax [16] [MFI]	growth inhibition IC50 (potency), SKBR3 cells [17] [nM]	growth inhibition span (percentage of cells killed), SKBR3 cells [17] [%]	growth inhibition span ratio to WT, SKBR3 cells [17] [fold]	Bmax [18] [MFI]	also measured
Variant 10014 (antibody, Fc substitutions are in EU numbering; also called v10014) heavy: EVQLVESGGGLVQPGGSLRLSCAASGFTFADYTMDWVRQAPGKGLEWVADVNPNSGGSIYNQRFKGRFTLSVDRSKNTLYLQMNSLRAEDTAVYYCARNLGPSFYFDYWGQGTLVTVSSASTKGPSVFPLAPSSKSTSGGTAALGCLVKDYFPEPVTVSWNSGALTSGVHTFPAVLQSSGLYSLSSVVTVPSSSLGTQTYICNVNHKPSNTKVDKKVEPKSCDKTHTCPPCPAPELLGGPSVFLFPPKPKDTLMISRTPEVTCVVVDVSHEDPEVKFNWYVDGVEVHNAKTKPREEQYNSTYRVVSVLTVLHQDWLNGKEYKCKVSNKALPAPIEKTISKAKGQPREPQVYVYPPSRDELTKNQVSLTCLVKGFYPSDIAVEWESNGQPENNYKTTPPVLDSDGSFALVSKLTVDKSRWQQGNVFSCSVMHEALHNHYTQKSLSLSPG light: not shown Fc: not shown	–	–	–	–	–	–	–	–	–	–	–	–	–	–	–	–	–	–	–	–	Ka (Recombinant human HER2 [1]): 4.7e+08 M⁻¹; Log Ka (Recombinant human HER2 [2]): 8.7; Log Ka (Recombinant human HER2 [3]): 8.7; Ka (Recombinant human HER2 [4]): 4.7e+08 M⁻¹
Variant 14024 (antibody, human IgG1, kappa, OA (one-armed) format; clones 7844, 7919, 4372; also called v14024) heavy: EVQLVESGGGLVQPGGSLRLSCAASGFTFTDYTMDWVRQAPGKGLEWVADVNPNSGGSIYNQRFKGRFTLSVDRSWNTLYLQMNSLRAEDTAVYYCARNLGPSFYFDYWGQGTLVTVSSASTKGPSVFPLAPSSKSTSGGTAALGCLVKDYFPEPVTVSWNSGALTSGVHTFPAVLQSSGLYSLSSVVTVPSSSLGTQTYICNVNHKPSNTKVDKKVEPKSCDKTHTCPPCPAPELLGGPSVFLFPPKPKDTLMISRTPEVTCVVVDVSHEDPEVKFNWYVDGVEVHNAKTKPREEQYNSTYRVVSVLTVLHQDWLNGKEYKCKVSNKALPAPIEKTISKAKGQPREPQVYVYPPSRDELTKNQVSLTCLVKGFYPSDIAVEWESNGQPENNYKTTPPVLDSDGSFALVSKLTVDKSRWQQGNVFSCSVMHEALHNHYTQKSLSLSPG light: not shown not shown	–	–	–	–	–	–	–	–	–	–	–	–	–	–	–	–	–	–	–	–	ΔΔG (Recombinant human HER2 [5]): -10.5 kJ/mol; Kd (Recombinant human HER2 [6]): ~0.25 nM; koff (Recombinant human HER2 [6]): ~2.1e-05 s⁻¹; kon (Recombinant human HER2 [6]): 85000 M⁻¹ s⁻¹; Ka, mut/Ka, WT (Recombinant human HER2 [7]): ~67 fold; Ka (Recombinant human HER2 [1]): 4e+09 M⁻¹; Log Ka (Recombinant human HER2 [2]): 9.6; Log Ka (Recombinant human HER2 [3]): 9.6; Ka (Recombinant human HER2 [4]): 4e+09 M⁻¹
Variant 14021 (antibody, name in Kabat numbering, V domains shown, also called v14021) VH: EVQLVESGGGLVQPGGSLRLSCAASGFTFQDYTMDWVRQAPGKGLEWVGDVNPNSGGSIYNQRFKGRFTFSVDRSWNTLYLQMNSLRAEDTAVYYCARNLGPSFYFDYWGQGTLVTVSS VL: DIQMTQSPSSLSASVGDRVTITCKASQDVSIGVAWYQQKPGKAPKLLIWSASYRYTGVPSRFSGSGSGTDFTLTISSLQPEDFATYYCQQYYIYPYTFGQGTKVEIKR	0.49	33	3.1	82	10	2	44	2.6	4.6	1	2.4	31000	2	44	2.4	23000	0.32	31	1.8	610	–
Variant 14022 (antibody, name in Kabat numbering, V domains shown, also called v14022) VH: EVQLVESGGGLVQPGGSLRLSCAASGFTFQDYTMDWVRQAPGKGLEWVGDVNPNSGGSIYNQRFKGRFTFSVDRSKNTLYLQMNSLRAEDTAVYYCARNLGPWFYFDYWGQGTLVTVSS VL: DIQMTQSPSSLSASVGDRVTITCKASQDVSIGVAWYQQKPGKAPKLLIWSASYRYTGVPSRFSGSGSGTDFTLTISSLQPEDFATYYCQQYYIYPYTFGQGTKVEIKR	0.54	28	2.6	83	9.8	5.2	63	3.7	1.8	2	3	31000	2.8	35	1.9	23000	0.41	26	1.6	630	–
Variant 14023 (antibody, name in Kabat numbering, V domains shown, also called v14023) VH: EVQLVESGGGLVQPGGSLRLSCAASGFTFQDYTMDWVRQAPGKGLEWVGDVNPNSGGSIYNQRFKGRFTFSVDRSWNTLYLQMNSLRAEDTAVYYCARNLGPWFYFDYWGQGTLVTVSS VL: DIQMTQSPSSLSASVGDRVTITCKASQDVSIGVAWYQQKPGKAPKLLIWSASYRYTGVPSRFSGSGSGTDFTLTISSLQPEDFATYYCQQYYIYPYTFGQGTKVEIKR	0.63	35	3.3	84	3.9	2.5	52	3.1	3.6	0.8	2	29000	1.7	45	2.5	23000	0.34	32	1.9	590	–

Reference: patent US20180273635A1 (Zymeworks, published 2018)
